Reference: FireProtDB (doi:10.1016/0022-2836(92)90557-z)

Conditions: Bacillus amyloliquefaciens; pH 6.3; 25 °C; Urea; Fluorescence; MES 1.00 M; NaCl 613 mM; reversible: yes; whole UniProt chain shown

B1: Ribonuclease wild type, P00648 (protein)
chain: MMKMEGIALKKRLSWISVCLLVLVSAAGMLFSTAAKTETSSHKAHTEAQVINTFDGVADYLQTYHKLPDNYITKSEAQALGWVASKGNLADVAPGKSIGGDIFSNREGKLPGKSGRTWREADINYTSGFRNSDRILYSSDWLIYKTTDHYQTFTKIR
In the case of B1, the “denaturant midpoint (higher = more stable)” value is reported as 4.58 M.
